{
  "source": "paper PMC9436932",
  "about": "(Scientific Reports, 2022)",
  "target": "the molecule itself",
  "assay": "SEC",
  "data": [
    {"protein": "TatB^22–171 (soluble membrane-extrinsic cytoplasmic domain of E. coli TatB, transmembrane helix residues 1–21 deleted) (domain or fragment, UniProt P69425 22-171, looked up, also called membrane-extrinsic domain of TatB; soluble TatB) PQRLPVAVKTVAGWIRALRSLATTVQNELTQELKLQEFQDSLKKVEKASLTNLTPELKASMDELRQAAESMKRSYVANDPEKASDEAHTIHNPVVKDNEAAHEGVTPAAAQTQASSPEQKPETTPEPVVKPAADAEPKTAAPSPSSSDKP", "values": [
      {"measurement": "binding result", "result": "binds"}
    ]}
  ]
}
